Tests used:
[1] = biological target: T1, human CD123 expressed on cells (human, UniProt P26951 19-378); test: flow cytometry competition, CHO Flp-In huCD123 cells, competitor A0110056A10-Alexa647 (0.9 nM)
T1 construct: the cell line is named under assay; also called huCD123; IL-3Rα

[2] = biological target: T1, human CD123 expressed on cells; test: flow cytometry competition, MOLM-13 cells, competitor A0110056A10-Alexa647 (0.4 nM)
[3] = biological target: T2, cynomolgus CD123 expressed on HEK Flp-In cells (cynomolgus); test: flow cytometry, Alexa647-labelled Nanobody, HEK Flp-In cynomolgus CD123 cells
T2 construct: EHH61867.1; also called cyCD123; cyno CD123
T2 chain: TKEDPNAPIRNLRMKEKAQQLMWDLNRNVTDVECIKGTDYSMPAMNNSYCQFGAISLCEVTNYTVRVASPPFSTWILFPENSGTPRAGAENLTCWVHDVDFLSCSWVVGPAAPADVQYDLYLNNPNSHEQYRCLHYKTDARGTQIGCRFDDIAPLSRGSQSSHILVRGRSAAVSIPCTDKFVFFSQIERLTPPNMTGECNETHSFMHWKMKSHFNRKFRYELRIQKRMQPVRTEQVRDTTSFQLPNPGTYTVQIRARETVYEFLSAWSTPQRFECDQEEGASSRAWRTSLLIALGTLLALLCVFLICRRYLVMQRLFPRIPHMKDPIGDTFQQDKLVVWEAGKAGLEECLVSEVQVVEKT

[4] = biological target: T1, human CD123 expressed on cells; test: flow cytometry competition, CHO Flp-In human CD123 cells, competitor APC-labelled antibody 7G3
[5] = biological target: T1, human CD123 expressed on cells; test: flow cytometry, MOLM-13 cells
[6] = biological target: T2, cynomolgus CD123 expressed on HEK …; test: flow cytometry competition, HEK Flp-In cyCD123 cells, competitor A0110056A10-Alexa647 (0.9 nM)
[7] = biological target: T2, cynomolgus CD123 expressed on HEK …; test: flow cytometry, Alexa647-labelled Nanobody, HEK Flp-In cyCD123 transfected cells
[8] = biological target: T3, recombinant human CD123 protein (R&D Systems, 301-R3/CF) (human, UniProt P26951 19-305); test: competition ELISA, coated antibody 7G3 as competitor, 4 nM biotinylated recombinant CD123
T3 construct: Bought recombinant His-tagged extracellular domain of human CD123; also called recombinant CD123; in house biotinylated-CD123 recombinant protein; not shown: His tag of the bought protein
T3 sequence: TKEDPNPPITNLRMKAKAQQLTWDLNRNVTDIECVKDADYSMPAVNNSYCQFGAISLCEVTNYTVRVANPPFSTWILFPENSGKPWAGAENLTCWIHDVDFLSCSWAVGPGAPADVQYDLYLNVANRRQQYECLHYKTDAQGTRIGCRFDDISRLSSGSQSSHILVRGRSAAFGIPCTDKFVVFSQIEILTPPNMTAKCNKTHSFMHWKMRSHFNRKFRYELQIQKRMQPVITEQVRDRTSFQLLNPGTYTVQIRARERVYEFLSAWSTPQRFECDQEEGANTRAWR

[9] = biological target: T1, human CD123 expressed on cells; test: flow cytometry, Alexa647-labelled Nanobody, MOLM-13 cells
[10] = biological target: T1, human CD123 expressed on cells; test: flow cytometry, KG1a cells
[11] = biological target: T1, human CD123 expressed on cells; test: flow cytometry, Alexa647-labelled Nanobody, MOLM-13 cells; remark: listed apart in the source
[12] = biological target: T1, human CD123 expressed on cells; test: flow cytometry, Alexa647-labelled Nanobody, CHO Flp-In human CD123 cells
[13] = biological target: T1, human CD123 expressed on cells; test: as above; remark: listed apart in the source
[14] = biological target: T1, human CD123 expressed on cells; test: flow cytometry competition, MOLM-13 cells, competitor A0110056A10-Alexa647 (0.7 nM)
[15] = biological target: T1, human CD123 expressed on cells; test: flow cytometry competition, MOLM-13 cells, competitor APC-labelled antibody 7G3
[16] = biological target: T3, recombinant human CD123 protein (R&D …); test: SPR (ProteOn XPR36), CD123 immobilized
[17] = biological target: T1, human CD123 expressed on cells; test: flow cytometry, Alexa647-labelled Nanobody, CHO Flp-In huCD123 transfected cells
[18] = biological target: T1, human CD123 expressed on cells; test: flow cytometry competition, CHO Flp-In human CD123 cells, competitor A0110056A10-Alexa647 (0.5 nM)

B1: A0110056A10 (VHH)
VHH: EVQLVKSGGGLVQAGGSLRLSCAASGITSKINDMGWYRQTPGNYREWVASITATGTTNYRDSVKGRFTISRDNAKSTVYLQMNSLKPEDTTVYYCNTFPPISNFWGQGTLVTVSS
notes: Monovalent anti-CD123 Nanobody; also called A0110PMP056A10; A0110056A10-Alexa647; not shown: C-terminal triple Flag, His6 tag
With B1 the IC50 [1] was 1.9 nM, the IC50 [2] was 1.1 nM and the “EC50 (read off the curve)” value [3] was about 3 nM. The IC50 [4] was 6.5 nM, the EC50 [5] was 0.63 nM and the IC50 [6] was 7 nM. For the same binder, the EC50 [7] was 2.48 nM, the IC50 [8] was 3.1 nM and the “EC50 (read off the curve)” value [9] was about 0.7 nM. For the same binder, the EC50 [10] was 0.5 nM, the “EC50 (read off the curve)” value [11] was about 0.5 nM and the “EC50 (read off the curve)” value [12] was about 1 nM. The “EC50 (read off the curve)” value [13] was about 3 nM, the IC50 [14] was 1.4 nM and the IC50 [15] was 1.1 nM. It also gave a Kd [16] of 1.5 nM, a koff [16] of 0.00079 s⁻¹ and a kon [16] of 530000 M⁻¹ s⁻¹. The EC50 [17] was 0.974 nM and the IC50 [18] was 6.7 nM.
